Experimental data taken from PMC4551919 (Nucleic Acids Research, 2015).
Each block holds one binder with its values, some of them ahead of it.

How the values were obtained:
SMG-1–8–9 complex = SMG-1–8–9 complex (human | , UniProt Q96Q15;Q8ND04;Q9H0W8); test: MST
SMG-1–9 complex = SMG-1–9 complex (human | , UniProt Q96Q15;Q9H0W8); test: MST
SMG-1ΔC-8–9 complex = SMG-1ΔC-8–9 complex (human | , UniProt Q96Q15;Q8ND04;Q9H0W8, deleted from the residues 2442 to 3591); test: MST
[1] = biological target: T1, SMG-1, full length, SBP-tagged (human, UniProt Q96Q15 1-3661); test: MST
UPF1, full length [2] = biological target: T2, UPF1, full length (human, UniProt Q92900 1-1129); test: SEC
T2 sequence: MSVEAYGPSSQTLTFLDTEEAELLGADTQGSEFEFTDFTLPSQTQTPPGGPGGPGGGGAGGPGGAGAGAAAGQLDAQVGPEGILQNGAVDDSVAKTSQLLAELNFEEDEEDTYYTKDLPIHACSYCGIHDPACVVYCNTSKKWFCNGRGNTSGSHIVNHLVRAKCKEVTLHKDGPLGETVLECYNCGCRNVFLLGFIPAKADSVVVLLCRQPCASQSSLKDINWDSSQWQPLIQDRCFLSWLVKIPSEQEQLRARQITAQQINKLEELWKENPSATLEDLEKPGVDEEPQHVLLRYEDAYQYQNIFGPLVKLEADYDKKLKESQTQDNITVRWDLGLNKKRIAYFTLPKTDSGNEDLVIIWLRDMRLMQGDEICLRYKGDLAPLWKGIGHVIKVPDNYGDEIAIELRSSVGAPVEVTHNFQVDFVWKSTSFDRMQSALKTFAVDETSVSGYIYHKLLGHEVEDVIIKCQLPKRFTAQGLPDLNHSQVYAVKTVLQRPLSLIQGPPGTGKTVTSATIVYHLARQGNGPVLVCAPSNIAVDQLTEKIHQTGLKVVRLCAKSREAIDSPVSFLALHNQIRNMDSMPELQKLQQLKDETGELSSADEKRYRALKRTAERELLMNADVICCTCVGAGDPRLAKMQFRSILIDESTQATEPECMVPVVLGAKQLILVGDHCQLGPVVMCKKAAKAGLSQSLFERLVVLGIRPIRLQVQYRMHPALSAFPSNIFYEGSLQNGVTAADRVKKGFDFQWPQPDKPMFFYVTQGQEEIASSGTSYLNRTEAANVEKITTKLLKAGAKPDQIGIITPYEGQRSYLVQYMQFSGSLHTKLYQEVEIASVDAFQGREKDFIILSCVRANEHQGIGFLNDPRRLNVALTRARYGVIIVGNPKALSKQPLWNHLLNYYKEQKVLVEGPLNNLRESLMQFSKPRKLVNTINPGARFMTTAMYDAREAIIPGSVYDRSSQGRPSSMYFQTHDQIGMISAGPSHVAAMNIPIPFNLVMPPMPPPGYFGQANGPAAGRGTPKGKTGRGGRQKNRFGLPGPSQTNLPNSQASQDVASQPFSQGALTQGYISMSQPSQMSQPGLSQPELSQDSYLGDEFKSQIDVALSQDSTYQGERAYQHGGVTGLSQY

SMG-8 = biological target: T3, SMG-8 (UniProt Q8ND04 1-991); test: cross-linking
T3 sequence: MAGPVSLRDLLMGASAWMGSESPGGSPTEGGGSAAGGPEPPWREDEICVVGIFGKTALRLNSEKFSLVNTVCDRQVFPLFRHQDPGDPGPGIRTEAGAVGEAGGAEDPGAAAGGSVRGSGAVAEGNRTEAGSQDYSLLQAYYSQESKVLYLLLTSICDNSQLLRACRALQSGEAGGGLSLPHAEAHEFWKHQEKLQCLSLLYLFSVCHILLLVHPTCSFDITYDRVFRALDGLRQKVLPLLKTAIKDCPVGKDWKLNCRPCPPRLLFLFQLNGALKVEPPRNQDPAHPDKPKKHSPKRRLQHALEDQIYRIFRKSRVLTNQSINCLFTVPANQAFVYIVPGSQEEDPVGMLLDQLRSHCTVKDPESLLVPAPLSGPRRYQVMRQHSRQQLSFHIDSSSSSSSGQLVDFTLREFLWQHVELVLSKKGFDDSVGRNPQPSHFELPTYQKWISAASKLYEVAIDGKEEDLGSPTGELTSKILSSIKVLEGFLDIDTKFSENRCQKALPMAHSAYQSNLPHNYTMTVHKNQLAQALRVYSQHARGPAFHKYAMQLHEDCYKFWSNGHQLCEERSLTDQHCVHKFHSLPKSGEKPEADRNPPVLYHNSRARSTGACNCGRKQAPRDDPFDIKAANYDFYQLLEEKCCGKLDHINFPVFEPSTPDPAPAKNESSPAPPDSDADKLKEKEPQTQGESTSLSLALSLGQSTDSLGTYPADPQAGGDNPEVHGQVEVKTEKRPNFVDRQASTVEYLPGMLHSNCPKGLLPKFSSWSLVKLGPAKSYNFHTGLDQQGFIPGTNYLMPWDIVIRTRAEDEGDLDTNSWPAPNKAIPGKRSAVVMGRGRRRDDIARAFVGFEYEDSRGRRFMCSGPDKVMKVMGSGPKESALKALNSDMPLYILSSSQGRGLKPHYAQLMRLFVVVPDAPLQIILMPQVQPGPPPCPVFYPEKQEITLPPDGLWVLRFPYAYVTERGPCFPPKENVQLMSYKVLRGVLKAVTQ

UPF1, full length [3] = biological target: T2, UPF1, full length; test: cross-linking
[4] = biological target: T1, SMG-1, full length, SBP-tagged; test: cross-linking

Kd (SMG-1–8–9 complex): 38 nM
Kd (SMG-1–9 complex): 56 nM
Kd (SMG-1ΔC-8–9 complex): 221 nM
Kd [1]: 75 nM
B1: UPF1, full length, fluorescently labeled with NT-547 (natural protein)
chain: T2 sequence
modifications: NT-547 dye on amines, on average one fluorescent moiety per UPF1 molecule

binding result (UPF1, full length [2]): binds
B2: UPF2 (121–1227) (domain or fragment)
chain: MKEKEESIQLHQEAWERHHLRKELRSKNQNAPDSRPEENFFSRLDSSLKKNTAFVKKLKTITEQQRDSLSHDFNGLNLSKYIAEAVASIVEAKLKISDVNCAVHLCSLFHQRYADFAPSLLQVWKKHFEARKEEKTPNITKLRTDLRFIAELTIVGIFTDKEGLSLIYEQLKNIINADRESHTHVSVVISFCRHCGDDIAGLVPRKVKSAAEKFNLSFPPSEIISPEKQQPFQNLLKEYFTSLTKHLKRDHRELQNTERQNRRILHSKGELSEDRHKQYEEFAMSYQKLLANSQSLADLLDENMPDLPQDKPTPEEHGPGIDIFTPGKPGEYDLEGGIWEDEDARNFYENLIDLKAFVPAILFKDNEKSCQNKESNKDDTKEAKESKENKEVSSPDDLELELENLEINDDTLELEGGDEAEDLTKKLLDEQEQEDEEASTGSHLKLIVDAFLQQLPNCVNRDLIDKAAMDFCMNMNTKANRKKLVRALFIVPRQRLDLLPFYARLVATLHPCMSDVAEDLCSMLRGDFRFHVRKKDQINIETKNKTVRFIGELTKFKMFTKNDTLHCLKMLLSDFSHHHIEMACTLLETCGRFLFRSPESHLRTSVLLEQMMRKKQAMHLDARYVTMVENAYYYCNPPPAEKTVKKKRPPLQEYVRKLLYKDLSKVTTEKVLRQMRKLPWQDQEVKDYVICCMINIWNVKYNSIHCVANLLAGLVLYQEDVGIHVVDGVLEDIRLGMEVNQPKFNQRRISSAKFLGELYNYRMVESAVIFRTLYSFTSFGVNPDGSPSSLDPPEHLFRIRLVCTILDTCGQYFDRGSSKRKLDCFLVYFQRYVWWKKSLEVWTKDHPFPIDIDYMISDTLELLRPKIKLCNSLEESIRQVQDLEREFLIKLGLVNDKDSKDSMTEGENLEEDEEEEEGGAETEEQSGNESEVNEPEEEEGSDNDDDEGEEEEEENTDYLTDSNKENETDEENTEVMIKGGGLKHVPCVEDEDFIQALDKMMLENLQQRSGESVKVHQLDVAIPLHLKSQLRKGPPLGGGEGEAESADTMPFVMLTRKGNKQQFKILNVPMSSQLAANHWNQQQAEQEERMRMKKLTLDINERQEQED

binding result (SMG-8): binds
binding result (UPF1, full length [3]): binds
binding result [4]: binds
B3: SMG-9 (natural protein)
chain: MSESGHSQPGLYGIERRRRWKEPGSGGPQNLSGPGGRERDYIAPWERERRDASEETSTSVMQKTPIILSKPPAERSKQPPPPTAPAAPPAPAPLEKPIVLMKPREEGKGPVAVTGASTPEGTAPPPPAAPAPPKGEKEGQRPTQPVYQIQNRGMGTAAPAAMDPVVGQAKLLPPERMKHSIKLVDDQMNWCDSAIEYLLDQTDVLVVGVLGLQGTGKSMVMSLLSANTPEEDQRTYVFRAQSAEMKERGGNQTSGIDFFITQERIVFLDTQPILSPSILDHLINNDRKLPPEYNLPHTYVEMQSLQIAAFLFTVCHVVIVVQDWFTDLSLYRFLQTAEMVKPSTPSPSHESSSSSGSDEGTEYYPHLVFLQNKARREDFCPRKLRQMHLMIDQLMAHSHLRYKGTLSMLQCNVFPGLPPDFLDSEVNLFLVPFMDSEAESENPPRAGPGSSPLFSLLPGYRGHPSFQSLVSKLRSQVMSMARPQLSHTILTEKNWFHYAARIWDGVRKSSALAEYSRLLA
